Format in all cases: cell-based, Saccharomyces cerevisiae
Data set [1] deals with S. cerevisiae 334. As to the kind of experiment: C. elegans elongase CEELO1 activity in yeast. The protocol:
The plasmids pRET-21 and -22 were transformed into S. cerevisiae 334 as previously described (see Example III) and the resulting yeast cultures (334(pRET-21) and 334(pRET-22)) grown in 100 ml of selective media without leucine (Ausubel et al, supra) for 48 hours at 20° C. in the presence of 50 μM GLA and AA. […] The percent conversion of GLA to DGLA by 334(pRET-21) and 334(pRET-22) was 11.1% and 19.4% respectively with an average of 15.25%.
To further confirm the GLA elongation activity of CEELO1, the experiment described in the paragraphs above was repeated with the exception that GLA and AA were added to cultures of 334(pRET-22) separately. […] In this case, the percent conversion appears to be double that described in previous results (see FIG. 48) and may either be due to the absence of the additional substrate (AA) or the subculturing of the yeast.
Additionally, to further determine the substrate specificity of CEELO1, 50 μM of each substrate besides GLA (e.g., SA (18:0), OA (18:1), LA (18:2n-6), DGLA (20:3n-g), AA ([…]), ADA (22:4n-6), ALA (18:3n-3), PA ([…]), EPA (20:5n-3) and STA ([…])) was added individually to cultures of 334(pRET-22) and grown for 48 hours at 20° C., as described in Example XVII. […] The CEELO1 elongated 13% of STA incorporated to ETA (20:4n-3)(see FIG. 62).

In a further data set the test system is yeast. As to the kind of experiment: Co-expression of CEELO1 and M. alpina Δ5 desaturase in yeast. As to conditions: pRET22 and pCGR4 co-expressed, FIG. 63. The protocol: Parallel to Examples III and XI, the C. elegans CEELO1 gene in the plasmid pRET22 and M. alpina Δ5 desaturase (pCGR-4; see Example III) were co-expressed in yeast to determine if AA or EPA could be produced from exogenously added GLA or STA, respectively. When a yeast culture containing both pRET22 and pCGR4 plasmids was grown in the presence of 50 μM GLA or STA in media lacking leucine and uracil, the percent conversion to the final products of AA and EPA, respectively, appeared identical (27% conversion)(see FIG. 63). Thus, simultaneous heterologous expression of CEEL01 and a Δ5 desaturase results in the biosynthesis of AA and EPA from GLA and STA, respectively in yeast.

Data set [2] has as its system S. cerevisiae 334. Briefly: Expression of M. alpina elongase (MAELO) cDNA in baker's yeast, GC-FAME analysis of lipid fraction. As to conditions: substrate GLA; 40-48 hours at 25° C. The text has this:
The constructs pRAE-5, and pRAE-6 were transformed into S. cerevisiae 334 (Hoveland et al., Gene 83:57-64 (1989)) and screened for elongase activity. The plasmid pCGN7875 (Calgene LLC, Davis, Calif.) containing jojoba KCS gene in pYES2 vector (Invitrogen Corp., Carlsbad, Calif.) was used as a positive control. The substrate used to detect elongase activity in M. alpina elongase (MAELO) was GLA and that in jojoba KCS was oleic acid (OA). The negative control strain was S. cerevisiae 334 containing pYX242 vector. The cultures were grown for 40-48 hours at 25° C., in selective media (Ausubel et al., Short Protocols in Molecular Biology, Ch. 13, p. 3-5 (1992)), in the presence of a particular substrate. The expression of the jojoba KCS gene cloned in pYES2 was under the control of GAL1 promoter, while the promoter in pYX242 is TP1, which is constitutive. […] The GC-FAME analysis of the lipid fraction of each cell pellet was performed as previously described (Knutzon et al., supra).
The jojoba KCS elongates long chain monounsaturated fatty acids 18:1n-9 to 20:1n-9. […] The activity of the M. alpina elongase, elongation (MAELO) of long chain monounsaturated and saturated fatty acids, is seen in the conversion of 18:1n-9 to 20:1n-9 and also in the synthesis of 24:0. The control strain, 334(pYX242) has very little or no detectable amount of 20:1 and 24:0 (see FIG. 10A). […]

Data set [3] relates to S. cerevisiae 334. Briefly: MAELO co-expressed with Δ5-desaturase (pCGR-4) in yeast, AA production. The settings on record: 25 μM GLA; pRAE-5 and pCGR-4 co-transformed; FIG. 11. The protocol: Once 20:3n-6 is generated by the M. alpina elongase (MAELO), the Δ5-desaturase can convert it to AA in the desired expression system. To test this hypothesis, the constructs pRAE-5 and pCGR-4 (a Δ5-desaturase containing plasmid) were co-transformed into S. cerevisiae 334 and screened for AA production. The substrate used was 25 μM GLA (18:3n-6). If the M. alpina elongase (MAELO) is active in yeast, then the substrate will be converted to DGLA(20:3n-6), which the Δ5-desaturase will convert to AA(20:4n-6).

Data set [4] has as its system S. cerevisiae 334. As to the kind of experiment: Comparison of MAELO and S. cerevisiae ELO2 PUFA elongase activity in baker's yeast. The settings on record: 25 μM GLA. From the text:
The ELO2 gene encoding for the yeast elongase was cloned from an S. cerevisiae genomic library (Origene, Rockville, Md.) using the primers RO514 (SEQ ID NO: 94) (5′-GGCTATGGATCCATGAATTCACTCGTTACTCAATATG-3′) and RO515 (SEQ ID NO: 95)(5′-CCTGCCAAGCTTTTACCTTTTTCTTCTGTGTTGAG-3′) incorporating the restriction sites (underlined) BamHI and HindIII (respectively). The ELO2 gene was cloned into the vector pYX242 at the BamHI and HindIII sites, designated pRELO, transformed into the S. cerevisiae host 334 (Hoveland et al., supra) and screened for PUFA elongase activity. The vector plasmid was used as a negative control and 334(pRAE-5) was grown to compare the PUFA elongase activity. The cultures were grown as previously described with no galactose in the media and 25 μM GLA added as a substrate. […] Additionally, when DGLA produced is expressed as a percent of the total lipids (shown in parenthesis, FIG. 12), the clones 334(pRELO-1) and 334 (pRELO-2) produced 0.153% and 0.2% DGLA respectively, while 334(pYX242) produced 0.185% DGLA. […] The M. alpina PUFA elongase activity is specific for this conversion as evidenced by the higher amount of DGLA produced compared to the control, 334(pYX242).

The subject of the next data set is SC334. Briefly: MAD (M. alpina direct) cDNA expression library screening in yeast, GLA to DGLA. The protocol:
To screen the library, the glycerol stocks were thawed and approximately 0.5 ml was added to 5 ml of liquid selective media lacking uracil (Ausubel et al., supra) and grown at 30° C. for 24 hours. The culture was then transferred into 50 ml of liquid selective medium lacking uracil with 2% galactose and 25 (D)M GLA (substrate for the elongase enzyme) for 24 hours at 25° C. with shaking. The GC-FAME analysis of the lipid content in the cell pellet of each induced culture was performed as previously described (Knutzon et al., supra). The MAELO (pRAE-5 in pYX242 grown in selective media lacking leucine) was used as a positive control in each batch run. MAELO had consistently been able to convert 1.5% of GLA to DGLA (see Example III).
After screening and analyzing approximately 750 individual pools by GC-FAME analysis, as described in Example VIII, one pool of five colonies (i.e., MAD708) appeared to have significant enzymatic activity in converting GLA to DGLA. […] This pool was tested again under identical assay conditions to confirm the initial findings. […] Since MAD708 was a pool of five different clones, it was necessary to isolate the individual cDNA clone which encoded for elongase activity from this pool. To do this, the original MAD708 glycerol stock was plated onto a selective media agar plate lacking uracil (Ausubel et al., supra). […]

Where [5] appears, read: 50 μM GLA and AA together, 48 hours at 20° C., FIG. 48.
[6] abbreviates: GLA and AA added separately, FIG. 61.

B1: CEELO1: C. elegans elongase (SEQ ID NO:4), 288 amino acids, expressed in yeast from pRET-22 (protein)
chain: MAQHPLVQRLLDVKFDTKRFVAIATHGPKNFPDAEGRKFFADHFDVTIQASILYMVVVFGTKWFMRNRQPFQLTIPLNIWNFILAAFSIAGAVKMTPEFFGTIANKGIVASYCKVFDFTKGENGYWVWLFMASKLFELVDTIFLVLRKRPLMFLHWYHHILTMIYAWYSHPLTPGFNRYGIYLNFVVHAFMYSYYFLRSMKIRVPGFIAQAITSLQIVQFIISCAVLAHLGYLMHFTNANCDFEPSVFKLAVFMDTTYLALFVNFFLQSYVLRGGKDKYKAVPKKKNN
modifications: Caenorhabditis elegans
Take B1: in the data set with S. cerevisiae 334 [1] (setting [5]), the “DGLA, average of the total lipid in the two samples” value is 1.79% and the “percent conversion of GLA to DGLA” value was 19.4%. Besides, the “elongation of AA or any endogenous fatty acid” value with S. cerevisiae 334 [1] (50 μM GLA and AA together, FIG. 48) was “almost no elongation”. The “STA incorporated elongated to ETA (20:4n-3)” value with S. cerevisiae 334 [1] (50 μM STA, 48 hours at 20° C., FIG. 62) was 13%. Also, the “elongation of other exogenously added substrates (SA, OA, LA, DGLA, AA, ADA, ALA, PA, EPA, STA)” value in the data set on S. cerevisiae 334 [1] (50 μM of each substrate individually, FIG. 62) was “STA was the only exogenously added substrate that was elongated”. Further, in the data set with S. cerevisiae 334 [1] (setting [6]), the “conversion rate of GLA to DGLA” value worked out at 38.2% and the “elongation activity of AA” value is “No elongation activity of AA was detected”. In addition, the “average percent conversion of GLA to DGLA” value in the data set on S. cerevisiae 334 [1] (average of 334(pRET-21) and 334(pRET-22), 50 μM GLA and AA together) was 15.25%. Moreover, in the data set with S. cerevisiae 334 [1] (endogenous substrate), the “conversion rate of endogenous 16:1n-7 to 18:1n-7” value came to 9.12%. In the data set on yeast (50 μM GLA), the “percent conversion of GLA to final product AA” value is recorded as 27%. Further, the “percent conversion of STA to final product EPA” value with yeast (50 μM STA) was determined as 27%.

B2: MAELO: Mortierella alpina elongase encoded by MAELO cDNA (SEQ ID NO:1), expressed in S. cerevisiae 334 from pRAE-5 (protein, listed as Mortierella alpina)
chain: MAAAILDKVNFGIDQPFGIKLDTYFAQAYELVTGKSIDSFVFQEGVTPLSTQREVAMWTITYFVVIFGGRQIMKSQDAFKLKPLFILHNFLLTIASGSLLLLFIENLVPILARNGLFYAICDDGAWTQRLELLYYLNYLVKYWELADTVFLVLKKKPLEFLHYFHHSMTMVLCFVQLGGYTSVSWVPITLNLTVHVFMYYYYMRSAAGVRIWWKQYLTTLQIVQFVLDLGFIYFCAYTYFAFTYFPWAPNVGKCAGTEGAALFGCGLLSSYLLLFINFYRITYNAKAKAAKERGSNFTPKTVKSGGSPKKPSKSKHI
As to B2, in the data set on S. cerevisiae 334 [2], the “percentage of 20:3n-6 in total lipid” value was found to be 0.324% and the “total amount of 20:3n-6 produced” value is 2.504 µg. Further, in the data set on S. cerevisiae 334 [3], the AA production result is listed as “confirm the production of AA”. Further, in the data set on S. cerevisiae 334 [4], the “increase of percent DGLA over 334(pYX242) (negative control)” value is 50.8%. In the data set with S. cerevisiae 334 [4] (FIG. 12), the “DGLA produced as a percent of the total lipids” value is reported as 0.279% and the “amount of 20:3n-6 or DGLA produced relative to negative control pYX242” value is listed as “approximately 4 times”. The “conversion of GLA to DGLA” value with SC334 (individual clones of MAD708 pool, FIG. 20) worked out at 3.4%. The “conversion of GLA to DGLA” value in the data set with SC334 (positive control in each batch run of library screening) worked out at 1.5%.

Source of the values: patent US7968692B2, “Elongase genes and uses thereof” (Abbott Laboratories, priority 1998, dated 2011).
